Biological target: T1, γ subunit of Sulfolobus solfataricus aIF2 (Ss-aIF2γ), native version (S. solfataricus, UniProt Q980A5 2-415)
T1 sequence: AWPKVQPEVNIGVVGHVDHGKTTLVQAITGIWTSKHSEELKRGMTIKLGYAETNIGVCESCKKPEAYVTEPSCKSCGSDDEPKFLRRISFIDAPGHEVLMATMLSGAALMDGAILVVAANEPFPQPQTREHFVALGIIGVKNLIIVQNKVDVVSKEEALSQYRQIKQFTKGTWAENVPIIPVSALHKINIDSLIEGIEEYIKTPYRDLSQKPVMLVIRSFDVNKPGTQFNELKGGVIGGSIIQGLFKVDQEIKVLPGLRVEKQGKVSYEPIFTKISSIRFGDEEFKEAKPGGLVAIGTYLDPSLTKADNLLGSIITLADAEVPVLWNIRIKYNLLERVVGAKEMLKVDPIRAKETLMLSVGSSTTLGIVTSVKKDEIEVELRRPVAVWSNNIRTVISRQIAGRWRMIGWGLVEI
Assay: SEC

| Binder | binding result |
| --- | --- |
| yeast eIF2αΔC274, His-tag removed (SAXS sample) (domain or fragment) MSTSHCRFYENKYPEIDDIVMVNVQQIAEMGAYVKLLEYDNIEGMILLSELSRRRIRSIQKLIRVGKNDVAVVLRVDKEKGYIDLSKRRVSSEDIIKCEEKYQKSKTVHSILRYCAEKFQIPLEELYKTIAWPLSRKFGHAYEAFKLSIIDETVWEGIEPPSKDVLDELKNYISKRLTPQAVKIRADVEVSCFSYEGIDAIKDALKSAEDMSTEQMQVKVKLVAAPLYVLTTQALDKQKGIEQLESAIEKITEVITKYGGVCNITMPPKAVTAT | binds |
| yeast αD3ΔC274, His-tag removed (SAXS sample) (domain or fragment) TPQAVKIRADVEVSCFSYEGIDAIKDALKSAEDMSTEQMQVKVKLVAAPLYVLTTQALDKQKGIEQLESAIEKITEVITKYGGVCNITMPPKAVTAT | binds |
